The source of these data is article PMC9304036 (Proceedings of the National Academy of Sciences of the …, 2022).

Experiment [1] addresses SARS-CoV-2 spike receptor-binding domain (RBD), residues 333 to 529, wild type, for crystallization (SARS-CoV-2 Wuhan-Hu-1 (QHD43416.1), UniProt P0DTC2). The experiment in a line: crystal structure. Particulars: both partners purified.
In experiment [2] the target is SARS-CoV-2 RBD, ancestral (wild type), for biolayer interferometry (SARS-CoV-2 Wuhan-Hu-1 (ancestral), UniProt P0DTC2). The experiment in a line: BLI; Octet Red; […] (15 µg/mL) […] (AHC) biosensors; […]; 1x PBS pH 7.4, 0.01% BSA, 0.002% Tween 20; association 90 s, dissociation 90 s; 1:1 binding model. Particulars: both partners purified.

B1: ADG20 Fab (Fab, V domains shown)
VH: EVQLVESGGGLVKPGGSLRLSCAASGFTFSSYYMNWVRQAPGKGLEWVSSISEDGYSTYYPDSLKGRFTISRDSAKNSLYLQMNSLRADDTAVYYCARDFSGHTAWAGTGFEYWGQGTLVTVSS
VL: QPVLTQPPSVSGAPGQRITISCTGSSSNIGAGYDVHWYQQLPGTAPKLLIYGSSSRNSGVPDRFSGSKSGTSASLAITGLQAEDEADYYCQSYDSSLSVLYTFGTGTKVTVL
notes: also called ADG-2 (same Fab domain)
With B1, the binding result in experiment [1] is listed as “binds”.

B2: ADI-55688 Fab (Fab, V domains shown)
VH: EVQLVESGGGLVKPGGSLRLSCAASGFTFSSYYMNWVRQAPGKGLEWVSSISSDGYNTYYPDSLKGRFTISRDSAKNSLYLQMNSLRADDTAVYYCARDFSGHTAVAGTGFEYWGQGTLVTVSS
VL: QPVLTQPPSVSGAPGQRITISCTGSSSNIGAGYDVHWYQQLPGTAPKLLIYGSSSRPSGVPDRFSGSKSGTSASLAITGLQAEDEADYYCQSYDSSLSVLYVFGTGTKVTVL
notes: also called parental antibody of ADG20
For the molecule B2, the binding result in experiment [1] is on record as “binds”.

B3: ADG20 IgG (antibody, V domains shown)
VH: EVQLVESGGGLVKPGGSLRLSCAASGFTFSSYYMNWVRQAPGKGLEWVSSISEDGYSTYYPDSLKGRFTISRDSAKNSLYLQMNSLRADDTAVYYCARDFSGHTAWAGTGFEYWGQGTLVTVSS
VL: QPVLTQPPSVSGAPGQRITISCTGSSSNIGAGYDVHWYQQLPGTAPKLLIYGSSSRNSGVPDRFSGSKSGTSASLAITGLQAEDEADYYCQSYDSSLSVLYTFGTGTKVTVL
notes: copies: 2 + 2
Consider B3, for which the binding result in experiment [2] is given as “binds”.
